Common to all, as to assay: cell-based or functional assay
One assay has as its target 17.4α/8.3β TCR (8.3-TCR).
Assay [1] concerns the target Vα17.5+ TCR (CDR3-invariant Vα17.5-Jα42 chain with a single TCRβ chain) on TCRαβ-transfectants.
Assay [2] has as its target 17.6α/8.3β TCR (low affinity IGRP206-214-reactive Vα17.6/8.3β TCR).

Where only a bound is given, the exact number is not on record here.

As for “NRP-V7/K^d-coated nanoparticles (from UniProt P01902 22-305) (peptide-MHC)”, the values for the percentage of cells that had formed CD8 caps, 5 min of incubation with beads (in the assay with 17.4α/8.3β TCR (8.3-TCR); in assay [1]; in assay [2]) were less than 20%, greater than 60% and less than 20%, respectively. The same substance displayed a percentage of cells that had formed CD8 caps, 30 min of incubation with beads in assay [2] of less than 20%.

Source of the values: patent US20250121043A1.
